Article doi:10.1101/2022.07.14.500127

How the values were obtained:
[1] = molecular target: Vip3Aa Domain I-Domain III truncation variant (Bacillus thuringiensis (Bt 9816C)); assay: SEC + other: protein thermal shift
[2] = molecular target: trypsin-activated DI-DIII of Vip3Aa (DI-DIII^act) (Bacillus thuringiensis (Bt 9816C)); assay: SEC
[3] = molecular target: Vip3Aa protoxin (full-length vegetative insecticidal protein Vip3Aa) (Bacillus thuringiensis (Bt 9816C)); assay: SEC + other: dynamic light scattering

Vip3Aa Domain I-Domain III truncation variant (domain or fragment)
stoichiometry N [1]: 4

trypsin-activated DI-DIII of Vip3Aa (DI-DIII^act) (complex)
stoichiometry N [2]: 4

Vip3Aa protoxin (full-length vegetative insecticidal protein Vip3Aa) (natural protein)
stoichiometry N [3]: 4
